What was measured:
Assay in all cases: holdup assay
Set-up in all cases: key: below the threshold = too weak to quantify, mostly under pKd 3.1 to 4
[1] = target: T1, HTRA3, P83110
T1 sequence (P83110 354-453, limits assumed, looked up): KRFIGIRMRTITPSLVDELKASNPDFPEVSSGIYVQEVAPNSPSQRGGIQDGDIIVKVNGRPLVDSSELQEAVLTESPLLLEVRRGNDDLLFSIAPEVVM

[2] = target: T2, CARD11, Q9BXL7
T2 sequence (Q9BXL7 662-765, limits assumed, looked up): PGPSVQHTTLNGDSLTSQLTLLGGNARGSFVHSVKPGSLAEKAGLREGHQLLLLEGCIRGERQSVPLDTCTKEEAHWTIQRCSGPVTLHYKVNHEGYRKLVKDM

[3] = target: NHERF4_1, Q86UT5-2
NHERF4_1, Q86UT5-2, sequence (Q86UT5 other isoform, or with tags, fused parts or gaps): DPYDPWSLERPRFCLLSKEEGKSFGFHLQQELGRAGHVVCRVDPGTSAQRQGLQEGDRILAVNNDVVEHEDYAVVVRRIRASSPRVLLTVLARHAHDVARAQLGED

[4] = target: T3, SNTB1, Q13884
T3 sequence (Q13884 107-205, limits assumed, looked up): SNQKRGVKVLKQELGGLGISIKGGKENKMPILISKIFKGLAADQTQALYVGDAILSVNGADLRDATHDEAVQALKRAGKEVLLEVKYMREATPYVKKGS

[5] = target: Inadl_6, Q8NI35
Inadl_6, Q8NI35, sequence (Q8NI35 1058-1167): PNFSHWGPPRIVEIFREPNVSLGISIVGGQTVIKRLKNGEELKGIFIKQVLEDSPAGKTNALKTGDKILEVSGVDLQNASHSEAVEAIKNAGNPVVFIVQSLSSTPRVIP

[6] = target: LNX1_2, Q8TBB1
LNX1_2, Q8TBB1, sequence (Q8TBB1 371-470): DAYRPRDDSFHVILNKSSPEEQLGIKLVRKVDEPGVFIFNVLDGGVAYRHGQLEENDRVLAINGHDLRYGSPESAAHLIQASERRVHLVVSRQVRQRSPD

[7] = target: PDZRN4_1, Q6ZMN7
PDZRN4_1, Q6ZMN7, sequence (Q6ZMN7 213-318): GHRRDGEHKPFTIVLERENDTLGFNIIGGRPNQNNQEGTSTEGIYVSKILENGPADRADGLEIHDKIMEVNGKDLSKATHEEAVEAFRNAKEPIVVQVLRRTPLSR

[8] = target: DLG4_3, P78352
DLG4_3, P78352, sequence (P78352 306-403): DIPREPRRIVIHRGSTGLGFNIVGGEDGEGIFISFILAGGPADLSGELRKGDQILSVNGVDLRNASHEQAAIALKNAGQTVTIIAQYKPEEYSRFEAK

[9] = target: GRIP2_6, Q9C0E4
GRIP2_6, Q9C0E4, sequence (Q9C0E4 648-740): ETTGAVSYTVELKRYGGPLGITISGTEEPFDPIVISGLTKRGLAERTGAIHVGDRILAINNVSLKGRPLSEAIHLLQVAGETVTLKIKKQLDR

[10] = target: HTRA1, Q92743
HTRA1, Q92743, sequence (Q92743 360-477): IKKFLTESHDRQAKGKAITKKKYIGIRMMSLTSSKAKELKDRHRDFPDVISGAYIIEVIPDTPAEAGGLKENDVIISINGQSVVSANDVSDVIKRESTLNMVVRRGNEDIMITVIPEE

[11] = target: T4, LNX2_3, Q8N448
T4 sequence (Q8N448 463-564, limits assumed, looked up): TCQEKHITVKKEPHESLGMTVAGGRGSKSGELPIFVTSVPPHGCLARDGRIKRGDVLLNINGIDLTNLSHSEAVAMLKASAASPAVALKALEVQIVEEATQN

[12] = target: TJP1_3, Q07157
TJP1_3, Q07157, sequence (Q07157 416-512): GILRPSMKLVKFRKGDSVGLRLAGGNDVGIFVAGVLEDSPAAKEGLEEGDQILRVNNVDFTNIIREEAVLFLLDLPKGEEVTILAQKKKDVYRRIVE

[13] = target: DLG2_2, Q15700
DLG2_2, Q15700, sequence (Q15700 189-283): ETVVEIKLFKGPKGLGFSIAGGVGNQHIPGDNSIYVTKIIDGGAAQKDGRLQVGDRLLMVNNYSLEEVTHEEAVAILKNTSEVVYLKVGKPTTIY

[14] = target: LAP2, Q96RT1
LAP2, Q96RT1, sequence (Q96RT1 other isoform, or with tags, fused parts or gaps): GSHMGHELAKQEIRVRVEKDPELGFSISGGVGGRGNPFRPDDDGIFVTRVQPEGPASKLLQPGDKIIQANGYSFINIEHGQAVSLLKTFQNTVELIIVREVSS

[15] = target: T5, APBA3_1, O96018
T5 sequence (O96018 389-490, limits assumed, looked up): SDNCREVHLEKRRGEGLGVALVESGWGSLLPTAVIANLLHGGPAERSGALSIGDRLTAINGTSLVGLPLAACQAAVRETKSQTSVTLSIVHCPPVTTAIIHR

[16] = target: T6, MPP7, Q5T2T1
T6 sequence (Q5T2T1 134-230, limits assumed, looked up): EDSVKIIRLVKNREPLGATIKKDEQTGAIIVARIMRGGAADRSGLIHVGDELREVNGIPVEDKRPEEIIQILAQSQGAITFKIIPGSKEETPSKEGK

[17] = target: GOPC, Q9HD26
[18] = target: MAGI3_2, Q5TCQ9
MAGI3_2, Q5TCQ9, sequence (Q5TCQ9 398-503): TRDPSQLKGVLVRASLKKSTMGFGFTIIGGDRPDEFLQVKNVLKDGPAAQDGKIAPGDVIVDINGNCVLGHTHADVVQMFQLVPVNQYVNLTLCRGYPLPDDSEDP

[19] = target: T7, TJP3_3, O95049
T7 sequence (O95049 375-456, limits assumed, looked up): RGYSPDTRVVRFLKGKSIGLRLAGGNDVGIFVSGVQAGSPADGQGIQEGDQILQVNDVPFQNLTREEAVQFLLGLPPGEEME

[20] = target: T8, GRIP1_5, Q9Y3R0
T8 sequence (Q9Y3R0 568-668, limits assumed, looked up): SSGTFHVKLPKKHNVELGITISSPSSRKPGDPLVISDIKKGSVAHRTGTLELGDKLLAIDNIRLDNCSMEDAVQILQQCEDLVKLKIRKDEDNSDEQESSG

[21] = target: LNX1_1, Q8TBB1
LNX1_1, Q8TBB1, sequence (Q8TBB1 261-371): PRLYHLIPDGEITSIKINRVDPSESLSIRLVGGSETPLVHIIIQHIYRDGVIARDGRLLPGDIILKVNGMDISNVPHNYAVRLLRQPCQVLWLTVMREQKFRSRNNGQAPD

[22] = target: GORASP2, Q9H8Y8
[23] = target: FRMPD3, Q5JV73
FRMPD3, Q5JV73, sequence (Q5JV73 12-100): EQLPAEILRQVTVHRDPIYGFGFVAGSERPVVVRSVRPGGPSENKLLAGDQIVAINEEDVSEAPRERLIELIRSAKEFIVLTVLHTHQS

[24] = target: HTRA2, O43464
HTRA2, O43464, sequence (O43464 355-458): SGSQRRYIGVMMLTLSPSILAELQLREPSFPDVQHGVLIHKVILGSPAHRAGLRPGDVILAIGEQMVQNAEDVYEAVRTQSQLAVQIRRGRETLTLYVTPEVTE

[25] = target: GRIP2_4, Q9C0E4
GRIP2_4, Q9C0E4, sequence (Q9C0E4 446-548): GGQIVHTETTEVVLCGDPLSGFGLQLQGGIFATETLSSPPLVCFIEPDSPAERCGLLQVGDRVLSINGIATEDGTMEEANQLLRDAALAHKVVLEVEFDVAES

[26] = target: T9, LRRC7, Q96NW7
T9 sequence (Q96NW7 1440-1537, limits assumed, looked up): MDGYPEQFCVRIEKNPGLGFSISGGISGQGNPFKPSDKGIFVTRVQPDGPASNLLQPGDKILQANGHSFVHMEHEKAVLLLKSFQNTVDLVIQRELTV

[27] = target: T10, DVL3, Q92997
T10 sequence (Q92997 244-331, limits assumed, looked up): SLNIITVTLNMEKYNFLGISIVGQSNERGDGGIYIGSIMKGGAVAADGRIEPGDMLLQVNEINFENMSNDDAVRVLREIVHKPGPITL

[28] = plain residues with an end cap or a label only (N-terminal biotin on a linker: ahx)
[29] = plain residues with an end cap or a label only (N-terminal biotin on a linker: gsgsgs; C-terminal amide)

Measured: pKd

PSASCAVTAA [PDLIM4, P50479;P50479-2]
below the threshold: [1]; [28] | [2]; [28] | [3]; [28] | [4]; [28] | [5]; [28] | [6]; [28] | [7]; [28] | [8]; [28] | [9]; [28] | [10]; [28] | [11]; [28] | [12]; [28] | [13]; [28] | [14]; [28] | [15]; [28] | [16]; [28] | [17]; [28] | [18]; [28] | [19]; [28] | [20]; [28] | [21]; [28] | [22]; [28] | [23]; [28] | [24]; [28] | [25]; [28] | [26]; [28] | [27]; [28]

VSVDDVRSTSQGLSSY [DFNB31_int, Q9P202]
3.7: [14]; [29]
below the threshold: [1]; [29] | [2]; [29] | [3]; [29] | [4]; [29] | [5]; [29] | [6]; [29] | [7]; [29] | [8]; [29] | [9]; [29] | [10]; [29] | [11]; [29] | [12]; [29] | [13]; [29] | [15]; [29] | [16]; [29] | [17]; [29] | [18]; [29] | [19]; [29] | [20]; [29] | [21]; [29] | [22]; [29] | [23]; [29] | [24]; [29] | [25]; [29] | [26]; [29] | [27]; [29]

— paper PMC9482650, “Quantitative fragmentomics allow affinity mapping of interactomes” (Nature Communications, 2022)
